These results are taken from the supplement of paper PMC7877785.

± gives the uncertainty stated by the source.

This data set can be described thus: self-splicing fitness, log relative to wild type (ln ratio); higher = more splicing; Tetrahymena group I intron in knt gene, E. coli kanamycin selection, DiMSum; sequences stand for … in CUCUCU…GGAGGGAAAAGUUAUCAGGCAUGCACCUGGUAGCUAGUCUUUAAACCAAUAGAUUGCAUCGGUUUAAAAGGCAAGACCGUCAAAUUGCGGGAAAGGGGUCAACAGCCGUUCAGUACCAAGUCUCAGGGGAAACUUUGAGAUGGCCUUGCAAAGGGUAUGGUAAUAAGCUGACGGACAUGGUCCUAACCACGCAGCCAAGUCCUAAGUCAACAGAUCUUCUGUUGAUAUGGAUGCAGUUCACAGACUAAAUGUCGGUCGGGGAAGAUGUAUUCUUCUCAUAAGAUAUAGUCGGACCUCUCCUUAAUGGGAGCUAGCGGAUGAAGUGAUGCAACACUGGAGCCGCUGGGAACUAAUUUGUAUGCGAAAGUAUAUUGAUUAGUUUUGGAGUACUCGUGGUCG
The method, boiled down: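 The eight P1ex-region nucleotides of an intron in the knt kanamycin-resistance gene on pET-22b(+) were all randomised and the library put into E. coli BL21(DE3). Six replicate transformations were grown overnight at 37°C or 30°C on LB agar with or without 25 μg/mL kanamycin, together with 100 μg/mL carbenicillin, 50 μM IPTG and 0.2% rhamnose. Colonies were pooled and amplicon-sequenced on an Illumina HiSeq 2500. Fitness from DiMSum is the error-weighted combination of wild-type-normalised replicate fold changes, kanamycin over none.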

ACGCAGCAAUAUUACGGGAG: the “self-splicing fitness (ln)” value is -2.73 ± 0.11 (30 °C) and -1.62 ± 0.11 (37 °C).
On the same counts, the results for UGGUAGCAAUAUUACGGCGA are -0.171 ± 0.19 and 0.49 ± 0.15.
On the same counts, the results for UUGAAGCAAUAUUACGGAAA are -0.265 ± 0.1 and -0.0838 ± 0.14.
The corresponding values for AGAUAGCAAUAUUACGUAUA are -1.91 ± 0.19 and -2.27 ± 0.28.
As to UAUAAGCAAUAUUACGGAUU, the “self-splicing fitness (ln)” value (30 °C) was -3.03 ± 0.21 and the “self-splicing fitness (ln)” value (37 °C) is -1.51 ± 0.19.
On the same counts, the results for AAUUAGCAAUAUUACGUCGG are -2.72 ± 0.19 and -1.66 ± 0.21.
Consider CCGUAGCAAUAUUACGGAUA, for which, for the setting “37 °C”, the “self-splicing fitness (ln)” value was -2.16 ± 0.28.
For GGGGAGCAAUAUUACGGGUA, the “self-splicing fitness (ln)” value by setting is: (30 °C) -2.64 ± 0.26; (37 °C) -2.25 ± 0.34.
On the same counts, the results for AUAAAGCAAUAUUACGUCGA are -0.992 ± 0.068 and 0.858 ± 0.086.
The corresponding values for CGAUAGCAAUAUUACGACUU are -1.4 ± 0.088 and -1.47 ± 0.13.
The corresponding values for AUAAAGCAAUAUUACGCAUU are -1.82 ± 0.086 and -0.523 ± 0.11.
Take CGGGAGCAAUAUUACGAACA: where the note is “37 °C”, the “self-splicing fitness (ln)” value is -1.37 ± 0.22.
Consider AAGGAGCAAUAUUACGAUGG, for which the “self-splicing fitness (ln)” value runs as follows: (30 °C) -3.59 ± 0.27; (37 °C) -2.11 ± 0.23.
The corresponding values for CUGAAGCAAUAUUACGAACA are -2.82 ± 0.41 and -2.11 ± 0.23.
The corresponding values for ACCCAGCAAUAUUACGCGUA are -0.599 ± 0.07 and -1.08 ± 0.062.
Consider CUUCAGCAAUAUUACGAGAA, for which the “self-splicing fitness (ln)” value (37 °C) is -0.0336 ± 0.41.
The same measure, in the same setting: the result for UCAAAGCAAUAUUACGCACC reads -0.644 ± 0.36.
CUCUAGCAAUAUUACGCUGU: the “self-splicing fitness (ln)” value by setting is: (30 °C) -3.07 ± 0.31; (37 °C) -3.24 ± 0.29.
On the same counts, the results for UAGCAGCAAUAUUACGAGAC are -1.84 ± 0.24 and -3.06 ± 0.32.
On the same counts, the results for CGUCAGCAAUAUUACGCGAA are -2.93 ± 0.21 and -2.51 ± 0.19.
On the same counts, the results for GCUUAGCAAUAUUACGGUUU are -1.4 ± 0.068 and -0.908 ± 0.074.
As to GAGUAGCAAUAUUACGGUGA, the “self-splicing fitness (ln)” value (30 °C) was -1.93 ± 0.16 and the “self-splicing fitness (ln)” value (37 °C) is -1.62 ± 0.14.
The corresponding values for UCGGAGCAAUAUUACGUGCA are -0.902 ± 0.17 and -1.03 ± 0.25.
In the case of UUAUAGCAAUAUUACGGAAU, for the setting “30 °C”, the “self-splicing fitness (ln)” value was -3.67 ± 0.36.
In the case of CCUCAGCAAUAUUACGAUUG, the “self-splicing fitness (ln)” value was -1.31 ± 0.068 (30 °C) and -0.558 ± 0.084 (37 °C).
Regarding CGUGAGCAAUAUUACGAAAC, under “37 °C”, the “self-splicing fitness (ln)” value was -0.708 ± 0.31.
Take UCUUAGCAAUAUUACGAAUC: where the note is “30 °C”, the “self-splicing fitness (ln)” value is -3.32 ± 0.5.
As for ACAUAGCAAUAUUACGUCCA, the “self-splicing fitness (ln)” value (30 °C) was -1.24 ± 0.14 and the “self-splicing fitness (ln)” value (37 °C) was -0.641 ± 0.17.
Turning to CUUUAGCAAUAUUACGAGUU, the “self-splicing fitness (ln)” value (37 °C) is -2.96 ± 0.4.
For GGGAAGCAAUAUUACGUCCA, the “self-splicing fitness (ln)” value was found to be 0.145 ± 0.14 (30 °C) and 0.69 ± 0.16 (37 °C).
Turning to GGCCAGCAAUAUUACGUUGU, the “self-splicing fitness (ln)” value is -0.721 ± 0.072 (30 °C) and -0.537 ± 0.1 (37 °C).
On the same counts, the results for CCCAAGCAAUAUUACGUCGC are -3.94 ± 0.28 and -2.38 ± 0.16.
Take CAGGAGCAAUAUUACGGUCU: the “self-splicing fitness (ln)” value by setting is: (30 °C) -3.85 ± 0.22; (37 °C) -2.84 ± 0.17.
The corresponding values for GCGGAGCAAUAUUACGAUGA are -3.1 ± 0.23 and -2.23 ± 0.26.
Consider AUCUAGCAAUAUUACGGUGC, for which the “self-splicing fitness (ln)” value is, setting by setting: (30 °C) -3.09 ± 0.22; (37 °C) -1.4 ± 0.21.
On the same counts, the results for CGUAAGCAAUAUUACGUAUC are -3.12 ± 0.24 and -3.6 ± 0.24.
On the same counts, the results for AACAAGCAAUAUUACGAUGA are -0.584 ± 0.072 and -0.801 ± 0.073.
The corresponding values for CACUAGCAAUAUUACGUUGC are -2.61 ± 0.22 and -1.58 ± 0.21.
For UAUUAGCAAUAUUACGUACC, the “self-splicing fitness (ln)” value (30 °C) was -3.37 ± 0.37 and the “self-splicing fitness (ln)” value (37 °C) was -1.26 ± 0.35.
With UCGCAGCAAUAUUACGAAAA, the “self-splicing fitness (ln)” value is -3.16 ± 0.43 (30 °C) and -2.2 ± 0.46 (37 °C).
On the same counts, the results for CUGUAGCAAUAUUACGAUGG are -2.74 ± 0.18 and -1.81 ± 0.19.
As to GGAAAGCAAUAUUACGCAAA, the “self-splicing fitness (ln)” value reads like this: (30 °C) -2.42 ± 0.28; (37 °C) -1.05 ± 0.25.
Regarding CGGUAGCAAUAUUACGCAAC, the “self-splicing fitness (ln)” value (37 °C) is -1.42 ± 0.35.
As to UCAGAGCAAUAUUACGGUGA, the “self-splicing fitness (ln)” value (30 °C) was -0.792 ± 0.084 and the “self-splicing fitness (ln)” value (37 °C) was -0.193 ± 0.1.
The corresponding values for GGUUAGCAAUAUUACGUCUA are -0.569 ± 0.12 and -0.565 ± 0.093.
As to CGAUAGCAAUAUUACGAAGA, the “self-splicing fitness (ln)” value (37 °C) was -2.21 ± 0.4.
Consider GACCAGCAAUAUUACGGGUC, for which the “self-splicing fitness (ln)” value was -4.01 ± 0.21 (30 °C) and -3.33 ± 0.22 (37 °C).
For GGUGAGCAAUAUUACGCGAG, the “self-splicing fitness (ln)” value (37 °C) was -1.97 ± 0.18.
For the sequence AAGCAGCAAUAUUACGAAGG, the “self-splicing fitness (ln)” value (30 °C) was -2.99 ± 0.16 and the “self-splicing fitness (ln)” value (37 °C) was -3.01 ± 0.26.
On to GUAGAGCAAUAUUACGUACC, for which the “self-splicing fitness (ln)” value is, setting by setting: (30 °C) -3.88 ± 0.47; (37 °C) -1.59 ± 0.37.
With CGAUAGCAAUAUUACGUACC, the “self-splicing fitness (ln)” value (37 °C) was -1.56 ± 0.44.
On to AGUCAGCAAUAUUACGAUCC, for which the “self-splicing fitness (ln)” value runs as follows: (30 °C) 0.284 ± 0.16; (37 °C) 0.198 ± 0.23.
On the same counts, the results for CUAAAGCAAUAUUACGUAGA are -3.64 ± 0.19 and -4.04 ± 0.46.
The corresponding values for AAUUAGCAAUAUUACGACGU are 0.421 ± 0.095 and -0.3 ± 0.075.
On the same counts, the results for CAACAGCAAUAUUACGCAUG are -2.41 ± 0.11 and -1.27 ± 0.14.
Consider GACCAGCAAUAUUACGACUG, for which the “self-splicing fitness (ln)” value by setting is: (30 °C) -2.86 ± 0.15; (37 °C) -2.12 ± 0.17.
As for GUAGAGCAAUAUUACGUUGG, the “self-splicing fitness (ln)” value (30 °C) was -2.16 ± 0.11 and the “self-splicing fitness (ln)” value (37 °C) is -2.04 ± 0.15.
For the sequence AGGGAGCAAUAUUACGAUAU, the “self-splicing fitness (ln)” value (37 °C) is -1.88 ± 0.47.
Take GAACAGCAAUAUUACGCGUG: the “self-splicing fitness (ln)” value was -0.931 ± 0.053 (30 °C) and -0.34 ± 0.059 (37 °C).
On to UGUAAGCAAUAUUACGUGAU, for which the “self-splicing fitness (ln)” value (30 °C) was -3.5 ± 0.18 and the “self-splicing fitness (ln)” value (37 °C) is -2.05 ± 0.17.
On the same counts, the results for UGAUAGCAAUAUUACGCAUA are -2.13 ± 0.19 and -0.977 ± 0.16.
Turning to UCAGAGCAAUAUUACGAGGC, for the setting “30 °C”, the “self-splicing fitness (ln)” value is -1.74 ± 0.43.
In the case of CGUCAGCAAUAUUACGCAGU, the “self-splicing fitness (ln)” value (30 °C) is -2.96 ± 0.2 and the “self-splicing fitness (ln)” value (37 °C) is -2.12 ± 0.18.
As to GCAAAGCAAUAUUACGUUCA, the “self-splicing fitness (ln)” value by setting is: (30 °C) -0.597 ± 0.064; (37 °C) -0.534 ± 0.077.
The corresponding values for CCCGAGCAAUAUUACGAGCC are -2.46 ± 0.2 and -2.12 ± 0.28.
The corresponding values for CAACAGCAAUAUUACGCACU are -2.34 ± 0.14 and -0.357 ± 0.12.
The corresponding values for UGAGAGCAAUAUUACGUUAU are -2.88 ± 0.23 and -2.89 ± 0.43.
For the sequence AAGAAGCAAUAUUACGCCCG, the “self-splicing fitness (ln)” value reads like this: (30 °C) -0.579 ± 0.18; (37 °C) -1.38 ± 0.23.
As for CUCGAGCAAUAUUACGUGGU, the “self-splicing fitness (ln)” value (30 °C) is -3.41 ± 0.16 and the “self-splicing fitness (ln)” value (37 °C) was -2.49 ± 0.18.
On the same counts, the results for AUGAAGCAAUAUUACGAAUU are -1.58 ± 0.084 and -1.25 ± 0.12.
The corresponding values for CGACAGCAAUAUUACGUUCC are -1.82 ± 0.11 and -0.935 ± 0.14.
The corresponding values for AUGCAGCAAUAUUACGCUGC are -4.54 ± 0.2 and -3.94 ± 0.19.
For AUUGAGCAAUAUUACGAGAC, the “self-splicing fitness (ln)” value (37 °C) was -0.883 ± 0.45.
In the case of GCACAGCAAUAUUACGCAUG, the “self-splicing fitness (ln)” value (30 °C) is -2.95 ± 0.19 and the “self-splicing fitness (ln)” value (37 °C) was -0.809 ± 0.12.
The corresponding values for GUGCAGCAAUAUUACGGGAU are -1.66 ± 0.066 and -1.32 ± 0.081.
On the same counts, the results for UGCGAGCAAUAUUACGAAAU are -2.85 ± 0.18 and -2.65 ± 0.38.
For the sequence GAAUAGCAAUAUUACGAAAG, the “self-splicing fitness (ln)” value reads like this: (30 °C) -3.86 ± 0.41; (37 °C) -2.55 ± 0.27.
Take ACCCAGCAAUAUUACGUGGG: the “self-splicing fitness (ln)” value runs as follows: (30 °C) -3.34 ± 0.11; (37 °C) -2.3 ± 0.13.
On the same counts, the results for GCACAGCAAUAUUACGCCGG are -1.25 ± 0.1 and -0.896 ± 0.16.
Consider CCUGAGCAAUAUUACGACCA, for which the “self-splicing fitness (ln)” value by setting is: (30 °C) -2.89 ± 0.44; (37 °C) -2.06 ± 0.38.
